Source: the RNAGym collection of RNA variant scans (doi:10.1073/pnas.2313332121)

B1: TPR t1 (parent)
chain: GACCAAUCUGCCCUCAGAGCUCGAGAACAUCUUCGGAUGCAGAGGAGGCAGGCUUCGGUGGCGCGAUAGCGCCAACGUCCUCAACCUCCAAUGCAUCCCACCACAUGAUGAUGCCUGAAGAGCCUUGGUUUUUUG

Variants of: B1
Test: polymerase ribozyme fitness, log enrichment relative to wild type (log ratio); higher = more active; in vitro selection for triplet polymerase activity
In short: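 Fitness is a logarithmic measure of how a genotype enriched relative to the wild type, with replicate averages weighted by inverse variance. The logarithm uses base 2, and enrichment came from Illumina sequencing of input and output libraries. Those libraries were PCR-built, transcribed mutants of each subunit of a heterodimeric triplet polymerase ribozyme, passed through one triplicate in vitro selection round that included frozen incubation at −7 °C, gel excision of extended constructs and streptavidin-bead capture. Genotypes were kept only if they had ≥10 input reads and ≥1 read per output.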

| Variant | polymerase ribozyme fitness (log ratio) |
| --- | --- |
| GACCAAUCUGCCCUCAGAGCUCGAGAACAUCUUCGGAUGCAGAGGAGGCAGGCUUUGGUGGCGCGAUAGCGCCAACGUCCUCAACCUCCAAUGCAUCCCACCACAUGAUGAUGCCUGAAGAGCUUUGGUUUUGUG [C56U C124U U133G] | 1.14 |
| GACCAAUCUGCCCUCAGAGCUCGAGAACAUCUUCGGAUGCAGAGGAGGCAGGCUUUGGUGGCGCGAUAGCGCCAACGUCCUCAACCUCCAAUGCAUCCCACCACAUGAUGAUGCGUGAAGAGCCUUGGUUUUUUG [C56U C115G] | -2.56 |
| GACCAAUCUGCCCUCAGAGCUCGAGAACAUCUUCGGAUGCAGAGGAGGCAGGCUUUGGUGGCGCGAUAGCGCCAACGUCCUUAACAUCCAAUGCAUCCCACCACAUGAUGAGGCCUGAAGAGCCUUGGCUUUUUG [C56U C82U C86A U112G U129C] | -1.4 |
| GACCAAUCUGCCCUCAGAGCUCGAGAACAUCUUCGGAUGCAGAGGAGGCAGGCUUUGGUGGCGCGAUAGCGCCAACGUCCUCGACCUCCAAUGCAUCCCACCACAUGAUGAUGCCUGAAGAGCCUUGGUUUUUUG [C56U A83G] | -0.676 |
| GACCAAUCUGCCCUCAGAGCUCGAGAACAUCUUCGGAUGCAGAGGAGGCAGGCUUUGGUGGCGCGAUAGCGCCAACGUCUUCAACCUCCAAUGCAUCCCACCACAUGAUGAUGCCUGAAGAGCCUUGGUUUUUUG [C56U C80U] | -1.17 |
| GACCAAUCUGCCCUCAGAGCUCGAGAACAUCUUCGGAUGCAGAGGAGGCAGGCUUUGGUGGCGCGAUAGCGCCAACGUCCUCAACCUCAAAUGCAUCCCACCACAUGAUGAUGCCUGAAGAGCCUUGGUUUUUUG [C56U C89A] | -1.04 |
| GACCAAUCUGCCCUCAGAGCUCGAGAACAUCUUCGGAUGCAGAGGAGGCAGGCUUUGGUGGCGCGAUAGCGCCAACGUCCUCAACUUCCAAUGCAUCCCACCACAUGAUGAUGCCUGAAGAGCUUUGGUUAUUUG [C56U C86U C124U U131A] | 1.32 |
| GACCAAUCUGCCCUCAGAGCUCGAGAACAUCUUCGGAUGCAGAGGAGGCAGGCUUUGGUGGCGCGAUAGCGCUAACGUCCUCAACCUCCAAUGCAUCCCACCACAUGAUGAUGCCUGAAGAGCCUUGGUUUUUUG [C56U C73U] | -0.755 |
| GACCAAUCUGCCCUCAGAGCUCGAGAACAUCUUCGGAUGCAGAGGAGGCAGGCUUUGGUGGCGCGAUAGCGCAAACGUCCUCAACCUCCAAUGCAUCCCUCCACAUGAUGAUGCCUGAAGAGCCUUGGUUUUUUG [C56U C73A A100U] | -1.12 |
| GACCAAUCUGCCCUCAGAGCUCGAGAACAUCUUCGGAUGCAGAGGAGGCAGGCUUUGGUGGCGCGAUAGCGCCAACGUCCUCAACCUUCAAUGCAUCCCACCACAUGAUGAUGCCUGAAGAGCCUUGGUUUUUUG [C56U C88U] | -0.153 |
| GACCAAUCUGCCCUCAGAGCUCGAGAACAUCUUCGGAUGCAGAGGAGGCAGGCUUUGGUGGCGCGAUAGUGCCAACGUCCUCAACCUCCAAUGCAACCCACCACAUGAUGAUGCCUGAAGAGCCUUGGUUUUUUG [C56U C70U U96A] | -2.06 |
| GACCAAUCUGCCCUCAGAGCUCGAGAACAUCUUCGGAUGCAGAGGAGGCAGGCUUUGGUGGCGCGAUAGCGCCAACGUCCUCAACCUCCAAUGCAUCCCACCUCAUGAUGAUGCCUGAAGAGCCUUGGUUUUUUG [C56U A103U] | -4.81 |
| GACCAAUCUGCCCUCAGAGCUCGAGAACAUCUUCGGAUGCAGAGGAGGCAGGCUUUGGUGGCGCGAUAGCGCCAACGUCCUCAACCUCCGAUCCAUCCCACCACAUGAUGAUGCCUGAAGAGCCUUGGUUUUUUG [C56U A90G G93C] | -1.38 |
| GACCAAUCUGCCCUCAGAGCUCGAGAACAUCUUCGGAUGCAGAGGAGGCAGGCUUGGGUGGCGCGAUAGCGCCAACGUCCUCAACCUCCAAUGCAGCCCACCACAUGAUGAUGCCUGAAGAGCCAUGGUUUUUUG [C56G U96G U125A] | -1.29 |
| GACCAAUCUGCCCUCAGAGCUCGAGAACAUCUUCGGAUGCAGAGGAGGCAGGCUUGGGUGGCGCGAUAGCGCCAACGUCCUCAACCUCCAAUGCAACCCACCACAUGAUGAUGCCUGAAGAGCCUUGGUUUUUUG [C56G U96A] | -0.238 |
| GACCAAUCUGCCCUCAGAGCUCGAGAACAUCUUCGGAUGCAGAGGAGGCAGGCUUUGGUGGCGCGAUAGCGCCAACGUCCUCAACCUCCAAUGCAUCCCACCACAUGAUGAUGCAUGAAGAGCCUUGGUUUUCUG [C56U C115A U133C] | 1.27 |
| GACCAAUCUGCCCUCAGAGCUCGAGAACAUCUUCGGAUGCAGAGGAGGCAGGCUUUGGUGGUGCGAUAGCGCCAACGUCCUCAACCUCCAAUGCAUCCCAGCACAUGAUGAUGCCUGAAGAGCCUUGGUUUUAUG [C56U C62U C101G U133A] | -3.24 |
| GACCAAUCUGCCCUCAGAGCUCGAGAACAUCUUCGGAUGCAGAGGAGGCAGGCUUUGGUGGCGCGAUAGCGCCAACGUCCUCAACCUUCAAUGCAUCCCACCACAUGAUGAUGACUGAAAAGCCUUGGUUUUUUG [C56U C88U C114A G120A] | -1.81 |
| GACCAAUCUGCCCUCAGAGCUCGAGAACAUCUUCGGAUGCAGAGGAGGCAGGCUUUGGUGGCGCGAUAGCGCGAACGUCCUCAACCUCCAAUGCAACCCACCACAAGAUGAUGCCUGAAGAGCCUUGGUUUUUUG [C56U C73G U96A U106A] | -3.7 |
| GACCAAUCUGCCCUCAGAGCUCGAGAACAUCUUCGGAUGCAGAGGAGGCAGGCUUGGGUGGCGCGAUAGCGCCAACGUCCUCAACCCCCAAUGCAUCCCACCACAUGAUGAUGCCUGAAGAGCCUUGGUUUUUUG [C56G U87C] | -0.336 |
| GACCAAUCUGCCCUCAGAGCUCGAGAACAUCUUCGGAUGCAGAGGAGGCAGGCUUUGGUGGCGCGAUAGCGCCAACGUCCUAAACCUCCAAUGCAUCCCACCACAUGAUCAUGCCUGAAGAGCCUUGGUUUUUUG [C56U C82A G110C] | -4.8 |
